Measured values: patent US20150166647A1 (VLST, published 2015)

Key:
ELC = biological target: T1, ELC; test: MSD electrochemiluminescence assay; chemokine coated at 1 µg/mL, 3C12F at 3 µg/mL; background = BSA
T1 construct: also called ELC/MIP-3β/CCL19; CCL19
T1 chemokine: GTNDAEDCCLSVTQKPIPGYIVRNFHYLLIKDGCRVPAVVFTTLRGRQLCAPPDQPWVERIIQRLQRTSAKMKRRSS

MCP-3 [1] = biological target: T2, MCP-3; test: as above
T2 construct: also called MCP-3/CCL7; CCL7

MDC [2] = biological target: T3, MDC; test: as above
T3 construct: also called MDC/CCL22; CCL22
T3 chemokine: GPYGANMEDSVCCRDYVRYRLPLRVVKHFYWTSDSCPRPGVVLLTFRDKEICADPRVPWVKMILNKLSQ

human HCC-1/CCL14/CCL14a [3] = biological target: T4, human HCC-1/CCL14/CCL14a (human, UniProt Q16627 28-93); test: as above
T4 sequence: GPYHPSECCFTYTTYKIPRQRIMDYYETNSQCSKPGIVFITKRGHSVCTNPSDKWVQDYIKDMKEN

human MCP-1/CCL2 [4] = biological target: T5, human MCP-1/CCL2 (human, UniProt P13500 24-99); test: as above
T5 construct: also called Biotin-MCP1
T5 sequence (P13500 24-99 limits assumed): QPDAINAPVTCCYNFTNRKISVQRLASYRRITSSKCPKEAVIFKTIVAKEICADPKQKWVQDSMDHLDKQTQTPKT

SDF [5] = biological target: T6, SDF; test: as above
T6 construct: also called SDF-1/CXCL12; CXCL12
T6 sequence (chemokine, as listed by the source): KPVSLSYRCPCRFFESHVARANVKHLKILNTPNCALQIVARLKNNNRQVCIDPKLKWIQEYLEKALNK

human PARC/CCL18 = biological target: T7, human PARC/CCL18 (human, UniProt P55774 21-89); test: as above
T7 sequence: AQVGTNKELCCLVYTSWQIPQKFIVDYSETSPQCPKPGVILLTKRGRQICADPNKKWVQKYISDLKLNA

human MPIF-1/CCL23 = biological target: T8, human MPIF-1/CCL23 (human, UniProt P55773 46-120); test: as above
T8 sequence: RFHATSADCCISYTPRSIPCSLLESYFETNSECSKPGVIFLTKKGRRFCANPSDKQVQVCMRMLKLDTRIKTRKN

MCP-4 [6] = biological target: T9, MCP-4; test: as above
T9 construct: also called MCP-4/CCL13; CCL13
T9 sequence (chemokine, as listed by the source): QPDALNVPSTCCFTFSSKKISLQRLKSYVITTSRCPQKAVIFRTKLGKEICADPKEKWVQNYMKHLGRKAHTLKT

human HCC-2/MIP-1δ/CCL15 = biological target: T10, human HCC-2/MIP-1δ/CCL15 (human, UniProt Q16663 46-113); test: as above
T10 sequence: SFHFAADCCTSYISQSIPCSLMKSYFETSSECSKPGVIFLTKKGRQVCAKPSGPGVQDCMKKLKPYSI

HCC-4 [7] = biological target: T11, HCC-4; test: as above
T11 construct: also called HCC-4/CCL16; CCL16
T11 chemokine: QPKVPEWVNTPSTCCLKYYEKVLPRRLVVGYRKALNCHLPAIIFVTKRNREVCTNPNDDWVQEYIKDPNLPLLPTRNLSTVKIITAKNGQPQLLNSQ

IL-8 [8] = biological target: T12, IL-8; test: as above
T12 construct: also called IL-8/CXCL8; CXCL8
T12 sequence (chemokine, as listed by the source): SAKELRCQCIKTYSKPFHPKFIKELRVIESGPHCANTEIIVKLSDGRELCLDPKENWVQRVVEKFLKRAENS

I-309 [9] = biological target: T13, I-309; test: as above
T13 construct: also called I-309/CCL1; CCL1
T13 chemokine: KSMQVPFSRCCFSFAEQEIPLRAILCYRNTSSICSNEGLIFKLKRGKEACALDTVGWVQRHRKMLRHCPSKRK

human RANTES/CCL5 [10] = biological target: T14, human RANTES/CCL5 (human, UniProt P13501 24-91); test: cell-based or functional assay
T14 sequence: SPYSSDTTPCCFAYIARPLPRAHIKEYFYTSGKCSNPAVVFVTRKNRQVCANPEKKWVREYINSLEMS

human MIP-1α/CCL3 [11] = biological target: T15, human MIP-1α/CCL3 (human, UniProt P10147 24-92); test: cell-based or functional assay
T15 sequence: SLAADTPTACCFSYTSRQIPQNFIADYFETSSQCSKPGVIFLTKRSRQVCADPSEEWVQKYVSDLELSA

mouse MIP-1α/CCL3 [12] = biological target: T16, mouse MIP-1α/CCL3 (mouse, UniProt P10855 24-92); test: MSD electrochemiluminescence, chemokine coated at 1 µg/mL
T16 construct: also called muMIP-1α
T16 sequence: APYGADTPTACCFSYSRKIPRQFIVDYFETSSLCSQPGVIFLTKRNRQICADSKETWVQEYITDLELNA

mouse MIP-1β/CCL4 [13] = biological target: T17, mouse MIP-1β/CCL4 (mouse, UniProt P14097 24-92); test: as above
T17 construct: also called muMIP-1β
T17 sequence: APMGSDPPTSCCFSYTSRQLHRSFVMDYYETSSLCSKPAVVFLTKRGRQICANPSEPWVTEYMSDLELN

mouse RANTES/CCL5 = biological target: T18, mouse RANTES/CCL5 (mouse, UniProt P30882 24-91); test: as above
T18 construct: also called muRANTES
T18 sequence (P30882 24-91 limits assumed): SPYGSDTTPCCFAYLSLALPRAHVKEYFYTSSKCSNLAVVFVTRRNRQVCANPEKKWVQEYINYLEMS

human RANTES/CCL5 [14] = biological target: T14, human RANTES/CCL5; test: ELISA, hybridoma fusion-well supernatant on biotinylated chemokine on streptavidin plate; background approx. 0.150
human MCP-1/CCL2 [15] = biological target: T5, human MCP-1/CCL2; test: as above
human MIP-1β/CCL4 = biological target: T19, human MIP-1β/CCL4 (human, UniProt Q8NHW4 24-92); test: as above
T19 construct: also called Biotin-MIP-1β
T19 chain: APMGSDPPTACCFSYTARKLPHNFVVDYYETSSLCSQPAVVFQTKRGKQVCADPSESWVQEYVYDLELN

human MIP-1α/CCL3 [16] = biological target: T15, human MIP-1α/CCL3; test: BIAcore (SPR)
human MIP-1α/CCL3 [17] = biological target: T15, human MIP-1α/CCL3; test: ELISA, hybridoma fusion-well supernatant on coated MIP-1α; background approx. 0.150
mouse MIP-1α/CCL3 [18] = biological target: T16, mouse MIP-1α/CCL3; test: Binding (MSD)
mouse MIP-1β/CCL4 [19] = biological target: T17, mouse MIP-1β/CCL4; test: Binding (MSD)
Fractalkine = biological target: T20, Fractalkine; test: MSD electrochemiluminescence assay; chemokine coated at 1 µg/mL, 7D1G at 3 µg/mL; background = BSA
T20 construct: also called Fractalkine/CX3CL1; CX3CL1
T20 chemokine: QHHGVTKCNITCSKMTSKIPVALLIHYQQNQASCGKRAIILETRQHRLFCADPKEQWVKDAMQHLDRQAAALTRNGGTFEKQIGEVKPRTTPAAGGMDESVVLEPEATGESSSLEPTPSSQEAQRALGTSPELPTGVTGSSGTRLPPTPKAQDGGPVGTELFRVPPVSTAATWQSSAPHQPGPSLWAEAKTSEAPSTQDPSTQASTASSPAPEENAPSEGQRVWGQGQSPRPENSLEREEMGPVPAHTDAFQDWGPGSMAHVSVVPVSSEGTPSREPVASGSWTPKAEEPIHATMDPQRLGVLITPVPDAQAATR

MCP-3 [20] = biological target: T2, MCP-3; test: as above
MDC [21] = biological target: T3, MDC; test: as above
human HCC-1/CCL14/CCL14a [22] = biological target: T4, human HCC-1/CCL14/CCL14a; test: as above
human MCP-1/CCL2 [23] = biological target: T5, human MCP-1/CCL2; test: as above
SDF [24] = biological target: T6, SDF; test: as above
Eotaxin = biological target: T21, Eotaxin; test: as above
T21 construct: also called Eotaxin/CCL11; CCL11
T21 sequence (chemokine, as listed by the source): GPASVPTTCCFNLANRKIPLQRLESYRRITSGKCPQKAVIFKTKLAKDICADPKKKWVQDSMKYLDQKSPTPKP

MCP-2 = biological target: T22, MCP-2; test: as above
T22 construct: also called MCP-2/CCL8; CCL8
T22 chemokine: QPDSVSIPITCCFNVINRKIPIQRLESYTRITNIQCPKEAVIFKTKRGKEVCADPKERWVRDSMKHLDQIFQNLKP

MCP-4 [25] = biological target: T9, MCP-4; test: as above
HCC-4 [26] = biological target: T11, HCC-4; test: as above
IL-8 [27] = biological target: T12, IL-8; test: as above
I-309 [28] = biological target: T13, I-309; test: as above

T2 sequence (chemokine, as listed by the source): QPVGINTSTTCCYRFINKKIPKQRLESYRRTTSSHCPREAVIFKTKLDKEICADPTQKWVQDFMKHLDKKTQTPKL

B1: monoclonal antibody 3C12F (antibody, V domains shown)
VH: EVQLQQSGAELVKPGASVKLSCTASGFNIKDTYIHWVKQRPEQGLEWIGRIDPANGNTQYDPKFQGKATITADTSSNTAYLQLTSLTSEDTAVYYCARRWDYDYAMDYWGQGTSVTVSS
VL: DIQMTQSPASLSASVGETVTITCRGSGNIHNYLAWYQQKQGKSPQLLVYNAKTLADGVPSRFSGSGSGTQYSLKINSLQPEDFGSYYCQHFWSTPYTFGGGTKLEIK
notes: also called MAb 3C12F
Does B1 bind (ELC)?
Result: no binding (tested: 3 µg/mL)

Does B1 bind (MCP-3 [1])?
Result: no binding (tested: 3 µg/mL)

Does B1 bind (MDC [2])?
Result: no binding (tested: 3 µg/mL)

Does B1 bind (human HCC-1/CCL14/CCL14a [3])?
Result: no binding (tested: 3 µg/mL)

Does B1 bind (human MCP-1/CCL2 [4])?
Result: no binding (tested: 3 µg/mL)

Does B1 bind (SDF [5])?
Result: no binding (tested: 3 µg/mL)

Does B1 bind (human PARC/CCL18)?
Result: no binding (tested: 3 µg/mL)

Does B1 bind (human MPIF-1/CCL23)?
Result: binds

Does B1 bind (MCP-4 [6])?
Result: no binding (tested: 3 µg/mL)

Does B1 bind (human HCC-2/MIP-1δ/CCL15)?
Result: binds

Does B1 bind (HCC-4 [7])?
Result: no binding (tested: 3 µg/mL)

Does B1 bind (IL-8 [8])?
Result: no binding (tested: 3 µg/mL)

Does B1 bind (I-309 [9])?
Result: no binding (tested: 3 µg/mL)

What about the “IC50 of inhibition of chemotaxis (5 ng/mL chemokine)” value (human RANTES/CCL5 [10]) of the same binder?
Its value is 3 to 5 µg/mL.

What about the “IC50 of inhibition of chemotaxis (5 ng/mL chemokine)” value (human MIP-1α/CCL3 [11]) of the same binder?
Its value is 3 to 5 µg/mL.

Does B1 bind (mouse MIP-1α/CCL3 [12])?
Result: no binding (tested: 3 µg/mL)

Does B1 bind (mouse MIP-1β/CCL4 [13])?
Result: no binding (tested: 3 µg/mL)

Does B1 bind (mouse RANTES/CCL5)?
Result: no binding (tested: 3 µg/mL)

What about the ELISA signal (human RANTES/CCL5 [14]) of the same binder?
Its ELISA signal is 2.61.

And the ELISA signal (human MCP-1/CCL2 [15])?
The ELISA signal was 0.189.

And the ELISA signal (human MIP-1β/CCL4)?
Its ELISA signal is 1.92.

What about the Kd (human MIP-1α/CCL3 [16]) of the same binder?
The Kd was 49 nM.

What about the ELISA signal (human MIP-1α/CCL3 [17]) of the same binder?
Its ELISA signal is 1.84.

B2: monoclonal antibody 7D1G (antibody, V domains shown)
VH: QVQLQQPGAELVKPGASVKMSCKASGYTFTSYNIHWVKQTPGQGLEWIGAVSPRNGDTSYNQRFKGKATLTADISSSTAYMQLSSLTSEDSAVYYCARGYGYDYWGQGTTLTVSS
VL: DVVLTQSPATLSVTPGDRVSLSCRASQSVSKYLHWYQQKSHESPRLLIKYVSQSISGIPSRFSGSGSGTDFTLSINSVETEDLGMYFCQQSNSWPHTFGAGTKLELK
notes: also called MAb 7D1G
Does B2 bind (mouse MIP-1α/CCL3 [18])?
Result: binds

Does B2 bind (mouse MIP-1β/CCL4 [19])?
Result: binds

Does B2 bind (Fractalkine)?
Result: no binding (tested: 3 µg/mL)

Does B2 bind (MCP-3 [20])?
Result: no binding (tested: 3 µg/mL)

Does B2 bind (MDC [21])?
Result: no binding (tested: 3 µg/mL)

Does B2 bind (human HCC-1/CCL14/CCL14a [22])?
Result: binds

Does B2 bind (human MCP-1/CCL2 [23])?
Result: no binding (tested: 3 µg/mL)

Does B2 bind (SDF [24])?
Result: no binding (tested: 3 µg/mL)

Does B2 bind (Eotaxin)?
Result: no binding (tested: 3 µg/mL)

Does B2 bind (MCP-2)?
Result: no binding (tested: 3 µg/mL)

Does B2 bind (MCP-4 [25])?
Result: no binding (tested: 3 µg/mL)

Does B2 bind (HCC-4 [26])?
Result: no binding (tested: 3 µg/mL)

Does B2 bind (IL-8 [27])?
Result: no binding (tested: 3 µg/mL)

Does B2 bind (I-309 [28])?
Result: no binding (tested: 3 µg/mL)

Does B2 bind (mouse RANTES/CCL5)?
Result: no binding (tested: 3 µg/mL)

What about the ELISA signal (human RANTES/CCL5 [14]) of the same binder?
Its ELISA signal is 0.145.

What about the ELISA signal (human MCP-1/CCL2 [15]) of the same binder?
The ELISA signal was 0.22.

And the ELISA signal (human MIP-1β/CCL4)?
Its ELISA signal is 2.57.

What about the ELISA signal (human MIP-1α/CCL3 [17]) of the same binder?
The ELISA signal was 1.7.
